To fix the notation:
B1: Mannose-1-phosphate guanylyltransferase regulatory subunit alpha (Homo sapiens), Q96IJ6-1 (parent)
chain: MLKAVILIGGPQKGTRFRPLSFEVPKPLFPVAGVPMIQHHIEACAQVPGMQEILLIGFYQPDEPLTQFLEAAQQEFNLPVRYLQEFAPLGTGGGLYHFRDQILAGSPEAFFVLNADVCSDFPLSAMLEAHRRQRHPFLLLGTTANRTQSLNYGCIVENPQTHEVLHYVEKPSTFISDIINCGIYLFSPEALKPLRDVFQRNQQDGQLEDSPGLWPGAGTIRLEQDVFSALAGQGQIYVHLTDGIWSQIKSAGSALYASRLYLSRYQDTHPERLAKHTPGGPWIRGNVYIHPTAKVAPSAVLGPNVSIGKGVTVGEGVRLRESIVLHGATLQEHTCVLHSIVGWGSTVGRWARVEGTPSDPNPNDPRARMDSESLFKDGKLLPAITILGCRVRIPAEVLILNSIVLPHKELSRSFTNQIIL

Variants of B1 are the subject of the test. Conditions: with GMPPB.
MLKAVILIGGPQKGTRFRPLSFEVPKPLFPVAGVPMIQHHIEACAQVPGMQEILLIGFYQPDEPLTQFLEAAQQEFNLPVRYLQKFAPLGTGGGLYHFRDQILAGSPEAFFVLNADVCSDFPLSAMLEAHRRQRHPFLLLGTTANRTQSLNYGCIVENPQTHEVLHYVEKPSTFISDIINCGIYLFSPEALKPLRDVFQRNQQDGQLEDSPGLWPGAGTIRLEQDVFSALAGQGQIYVHLTDGIWSAIKSAGSALYASRLYLSRYQDTHPERLAKHTPGGPWIRGNVYIHPTAKVAPSAVLGPNVSIGKGVTVGEGVRLRESIVLHGATLQEHTCVLHSIVGWGSTVGRWARVEGTPSDPNPNDPRARMDSESLFKDGKLLPAITILGCRVRIPAEVLILNSIVLPHKELSRSFTNQIIL [E85K;Q247A]: the “effect of a mutation on the interaction” value is “with no effect”.

For the variant MLKAVILIGGPQKGTRFRPLSFEVPKPLFPVAGVPMIQHHIEACAQVPGMQEILLIGFYQPDEPLTQFLEAAQQEFNLPVRYLQEFAPLGTGGGLYHFRDQILAGSPEAFFVLNADVCSDFPLSAMLEAHRRQRHPFLLLGTTANRTQSLNYGCIVENPQTHEVLHYVEKPSTFISDIINCGIYLFSPEALKPLRDVFQRNQQDGQLEDSPGLWPGAGTIRLEQDVFSALAGQGQIYVHLTDGIWSQIKSAGSALYASRLYLSRYQDTHPERLAKHTPGGPWIRGNVYIHPTAKVAPSAVLGPNVSIGKGVTVGEGVRLRESIVLHGATLQEHTCVLHSIVGWGSTVGRWARVEGTPSDPNPNDPRARMDSESLFKDGKLLPAITILGCRVRIPARVLILNSIVLPHKELSRSFTNQIIL [E396R], the “effect of a mutation on the interaction” value is given as “with no effect”.

Turning to MLKAVILIGGPQKGTRFRPLSFEVPKPLFPVAGVPMIQHHIEACAQVPGMQEILLIGFYQPDEPLTQFLEAAQQEFNLPVRYLQEFAPLGTGGGLYHFRDQILAGSPEAFFVLNADVCSDFPLSAMLEAHRRQRHPFLLLGTTANRTQSLNYGCIVENPQTHEVLHYVEKPSTFISDIINCGIYLFSPEALKPLRDVFQRNQQDGQLEDSPGLWPGAGTIRLEQDVFSALAGQGQIYVHLTDGIWSQIKSAGSALYASRLYLSRYQDTHPERLAKHTPGGPWIRGNVYIHPTAKVAPSAVLGPNVSIGKGVTVGEGVRLRESIVLHGATLQEHTCVLHSIVGWGSTVGRAAAVEGTPSDPNPNDPRARMDSESLFKDGKLLPAITILGCRVRIPAEVLILNSIVLPHKELSRSFTNQIIL [W350A;R352A], the “effect of a mutation on the interaction” value is reported as “disrupting interaction”.

Turning to MLKAVILIGGPQKGTRFRPLSFEVPKPLFPVAGVPMIQHHIEACAQVPGMQEILLIGFYQPDEPLTQFLEAAQQEFNLPVRYLQEFAPLGTGGGLYHFRDQILAGSPEAFFVLNADVCSDFPLSAMLEAHRRQRHPFLLLGTTANRTQSLNYGCIVENPQTHEVLHYVEKPSTFISDIINCGIYLFSPEALKPLRDVFQRNQQDGQLEDSPGLWPGAGTIRLEQDVFSALAGQGQIYVHLTDGIWSQIKSAGSALYASRLYLSRYQDTHPERLAKHTPGGPWIRGNVYIHPTAKVAPSAVLGPNVSIGKGVTVGEGVELRESIVLHGATLQEHTCVLHSIVGWGSTVGRWARVEGTPSDPNPNDPRARMDSESLFKDGKLLPAITILGCRVRIPAEVLILNSIVLPHKELSRSFTNQIIL [R318E], the “effect of a mutation on the interaction” value is reported as “disrupting interaction”.
